Experimental findings from US20180161335 are described below.

For series [1], the system named is the other GTPases tested.
For series [2], the target named is ARF3, purified from E. coli, preloaded with BODIPY FL GDP (UniProt P61204).
Chain of ARF3, purified from E. coli, preloaded with BODIPY FL GDP (P61204 whole entry): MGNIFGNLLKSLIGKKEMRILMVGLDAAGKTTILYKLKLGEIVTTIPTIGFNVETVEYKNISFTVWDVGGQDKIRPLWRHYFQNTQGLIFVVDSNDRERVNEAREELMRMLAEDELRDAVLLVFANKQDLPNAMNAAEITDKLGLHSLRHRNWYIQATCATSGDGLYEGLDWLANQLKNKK

As to “C9ORF72 isoform A, 2x HA-tagged, in HEK cell lysate”, the “guanine exchange activity (BODIPY-GDP fluorescence)” value in series [1] is “Significant activity was not observed using both C9ORF72 isoforms on the other GTPases tested”; in series [2], “C9ORF72 isoforms A and B stimulated guanine exchange on ARF3”.
